Reference: publication PMC7728438
Values belong to the substance of their own block, whether it stands above or below them.

Legend:
[1] = target: PC-1^deltaNT/PC-2_(F604P) heteromer (UniProt P98161)
[2] = target: native heteromeric PC-1/PC-2 polycystin complex of mIMCD-3 primary cilia (mouse (endogenous in mIMCD-3)) (UniProt O08852)
[3] = target: native heteromeric PC-1/PC-2 polycystin complex of mIMCD-3 primary cilia (mouse (endogenous in mIMCD-3)) (UniProt O08852); remark: listed apart in the source
[4] = target: PC-2 F604P (human polycystin-2 with the gain of function mutation F604P) (human) (UniProt Q13563)
PC-2 F604P (human polycystin-2 with the gain of function mutation F604P) (human), sequence (Q13563 whole entry F604P): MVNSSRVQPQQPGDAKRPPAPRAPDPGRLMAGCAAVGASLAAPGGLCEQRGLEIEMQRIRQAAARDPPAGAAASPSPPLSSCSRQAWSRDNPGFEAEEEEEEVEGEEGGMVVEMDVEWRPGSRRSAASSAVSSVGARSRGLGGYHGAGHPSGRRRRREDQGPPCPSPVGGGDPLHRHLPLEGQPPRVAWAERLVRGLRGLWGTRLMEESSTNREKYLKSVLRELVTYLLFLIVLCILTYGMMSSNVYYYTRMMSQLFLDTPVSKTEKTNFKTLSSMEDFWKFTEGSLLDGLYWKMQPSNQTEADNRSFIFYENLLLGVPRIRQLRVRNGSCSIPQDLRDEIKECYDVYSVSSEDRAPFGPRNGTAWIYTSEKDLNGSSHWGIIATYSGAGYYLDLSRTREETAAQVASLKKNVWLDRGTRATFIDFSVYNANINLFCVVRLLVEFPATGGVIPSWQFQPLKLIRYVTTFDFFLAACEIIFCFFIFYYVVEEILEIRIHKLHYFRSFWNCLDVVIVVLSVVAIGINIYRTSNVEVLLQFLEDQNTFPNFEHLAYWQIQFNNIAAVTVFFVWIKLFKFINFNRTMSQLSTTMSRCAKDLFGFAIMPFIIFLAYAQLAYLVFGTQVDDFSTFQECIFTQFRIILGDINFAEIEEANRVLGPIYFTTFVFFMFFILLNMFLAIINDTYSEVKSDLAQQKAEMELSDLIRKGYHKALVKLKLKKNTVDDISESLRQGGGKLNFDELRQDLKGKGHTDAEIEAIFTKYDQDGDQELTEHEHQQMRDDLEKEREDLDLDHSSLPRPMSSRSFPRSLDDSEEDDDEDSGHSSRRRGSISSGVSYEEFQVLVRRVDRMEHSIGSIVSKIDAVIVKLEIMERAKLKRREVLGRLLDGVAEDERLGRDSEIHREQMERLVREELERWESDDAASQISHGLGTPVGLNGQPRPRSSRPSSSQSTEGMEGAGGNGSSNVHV

PC-1 N-terminal fragment NTF^263-535, sequence (P98161 263-535): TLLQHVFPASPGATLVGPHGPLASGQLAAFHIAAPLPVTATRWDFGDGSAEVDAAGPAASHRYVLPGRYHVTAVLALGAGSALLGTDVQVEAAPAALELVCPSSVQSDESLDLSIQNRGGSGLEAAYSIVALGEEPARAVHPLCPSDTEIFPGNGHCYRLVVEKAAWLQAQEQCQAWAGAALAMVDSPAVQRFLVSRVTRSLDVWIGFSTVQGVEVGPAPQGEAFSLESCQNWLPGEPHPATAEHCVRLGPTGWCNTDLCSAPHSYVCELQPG
PC-1^deltaNT/PC-2_(F604P) heteromer, sequence (P98161 other isoform, or with tags, fused parts or gaps F604P | F604P, chain 1 of 2): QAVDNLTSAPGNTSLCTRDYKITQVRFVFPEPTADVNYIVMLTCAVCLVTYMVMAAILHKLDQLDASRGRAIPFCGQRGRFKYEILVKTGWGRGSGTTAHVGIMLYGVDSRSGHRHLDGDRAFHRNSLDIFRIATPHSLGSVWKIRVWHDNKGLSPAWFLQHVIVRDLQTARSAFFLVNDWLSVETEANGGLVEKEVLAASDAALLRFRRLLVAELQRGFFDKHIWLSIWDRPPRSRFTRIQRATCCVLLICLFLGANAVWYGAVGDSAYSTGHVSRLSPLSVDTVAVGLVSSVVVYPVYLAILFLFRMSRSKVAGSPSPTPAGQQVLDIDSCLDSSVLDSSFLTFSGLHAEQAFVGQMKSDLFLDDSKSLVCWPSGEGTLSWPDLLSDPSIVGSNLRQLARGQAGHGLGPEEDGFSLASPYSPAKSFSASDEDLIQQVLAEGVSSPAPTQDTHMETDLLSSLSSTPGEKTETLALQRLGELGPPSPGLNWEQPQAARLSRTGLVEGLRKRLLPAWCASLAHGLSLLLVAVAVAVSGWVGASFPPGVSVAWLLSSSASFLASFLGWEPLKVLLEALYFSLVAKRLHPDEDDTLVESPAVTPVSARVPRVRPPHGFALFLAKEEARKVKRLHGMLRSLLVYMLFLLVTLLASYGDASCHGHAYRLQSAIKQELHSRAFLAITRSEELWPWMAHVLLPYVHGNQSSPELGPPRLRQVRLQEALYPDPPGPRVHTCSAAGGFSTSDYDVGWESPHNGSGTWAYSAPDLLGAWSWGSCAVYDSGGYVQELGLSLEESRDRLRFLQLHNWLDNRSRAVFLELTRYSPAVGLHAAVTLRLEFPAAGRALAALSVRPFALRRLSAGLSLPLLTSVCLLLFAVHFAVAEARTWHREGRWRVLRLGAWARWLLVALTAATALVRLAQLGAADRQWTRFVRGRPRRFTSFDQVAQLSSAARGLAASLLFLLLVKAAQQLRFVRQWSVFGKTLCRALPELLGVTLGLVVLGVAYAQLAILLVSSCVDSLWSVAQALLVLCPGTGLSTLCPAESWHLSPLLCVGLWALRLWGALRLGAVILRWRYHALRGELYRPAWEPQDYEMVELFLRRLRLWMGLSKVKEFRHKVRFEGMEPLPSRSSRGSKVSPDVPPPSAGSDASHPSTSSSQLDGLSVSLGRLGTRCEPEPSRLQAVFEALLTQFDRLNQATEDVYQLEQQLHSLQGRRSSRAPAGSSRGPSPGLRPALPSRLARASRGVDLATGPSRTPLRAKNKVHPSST
PC-1^deltaNT/PC-2_(F604P) heteromer, sequence (Q13563 whole entry F604P, chain 2 of 2, further chain): as the sequence (Q13563 whole entry F604P) above
PC-1 N-terminal fragment NTF^24-852, sequence (P98161 24-852): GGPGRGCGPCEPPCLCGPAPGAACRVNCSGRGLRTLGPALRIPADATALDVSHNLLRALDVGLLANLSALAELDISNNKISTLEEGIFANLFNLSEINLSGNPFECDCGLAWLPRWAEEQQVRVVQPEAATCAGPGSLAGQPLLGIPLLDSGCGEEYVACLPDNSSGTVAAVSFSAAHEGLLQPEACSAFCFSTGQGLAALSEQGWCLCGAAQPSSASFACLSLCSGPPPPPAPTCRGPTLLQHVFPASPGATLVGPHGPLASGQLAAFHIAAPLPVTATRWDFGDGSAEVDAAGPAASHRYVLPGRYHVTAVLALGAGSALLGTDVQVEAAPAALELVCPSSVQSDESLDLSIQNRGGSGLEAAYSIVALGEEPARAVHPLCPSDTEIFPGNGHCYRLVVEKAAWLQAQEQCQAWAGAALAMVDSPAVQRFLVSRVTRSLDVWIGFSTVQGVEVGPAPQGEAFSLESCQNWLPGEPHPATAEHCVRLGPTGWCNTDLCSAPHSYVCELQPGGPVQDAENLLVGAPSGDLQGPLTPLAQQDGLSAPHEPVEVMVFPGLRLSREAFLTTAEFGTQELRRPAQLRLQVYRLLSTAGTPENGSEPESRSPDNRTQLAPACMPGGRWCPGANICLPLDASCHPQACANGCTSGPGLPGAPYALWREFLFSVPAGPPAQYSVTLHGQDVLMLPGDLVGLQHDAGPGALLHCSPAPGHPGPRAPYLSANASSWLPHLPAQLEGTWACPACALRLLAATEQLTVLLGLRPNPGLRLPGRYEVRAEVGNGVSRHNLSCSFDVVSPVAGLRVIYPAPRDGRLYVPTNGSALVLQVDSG

outward whole-cell currents of HEK293 cells expressing PC-1deltaNT/PC-2 F604P with the fragment in the bath solution [1]: 65.5 pA/pF
Substance: PC-1 N-terminal fragment NTF^24-852 (from UniProt P98161 24-852) (domain or fragment)

probability of single channel openings at negative membrane potentials, excised inside-out patches of mIMCD-3 primary cilia, 0.7 ug/mL (~50 nM) fragment in the pipette [2]: 5 fold
spike-like elevations of ciliary Ca2+ (Arl13b-mScarlet-GCaMP6s, TIRF microscopy) in mIMCD-3 cells after the fragment; none in untreated cells, with boiled fragment or in PC-2 knockout cells [3]: > 0.35 ΔF/F
outward whole-cell currents of HEK293 cells expressing PC-1deltaNT/PC-2 F604P with the fragment in the bath solution (boiled fragment inactive) [1]: 61.4 pA/pF
Substance: PC-1 N-terminal fragment NTF^263-535 (from UniProt P98161 263-535) (domain or fragment)

relative open probability at -100 mV, whole-cell patch clamp, HEK293 cells [4]: 0.1
whole-cell patch clamp current density at +100 mV, HEK293 cells co-expressing sPC-1 and PC-2 F604P (PC-2 F604P alone gave negligible currents) [4]: 123 pA/pF
Substance: sPC-1 (human polycystin-1 with Ig kappa-chain secretion sequence and HA tag in place of its own signal peptide) (from UniProt P98161 24-4303) (receptor)

relative open probability at -100 mV, whole-cell patch clamp, HEK293 cells [4]: 0.3
whole-cell patch clamp current density at +180 mV, HEK293 cells co-expressing sPC-1pore and PC-2 F604P [4]: 71.1 pA/pF
Substance: sPC-1_(pore) (sPC-1 with R4100G, R4107G and H4111G) (from UniProt P98161 24-4303) (receptor)
